Measured values: patent US20160159906A1 (Genentech, published 2016)
Changes are numbered by the printed parent chain.

T1: human CD79b (human, UniProt P40259 29-229)
T1 sequence: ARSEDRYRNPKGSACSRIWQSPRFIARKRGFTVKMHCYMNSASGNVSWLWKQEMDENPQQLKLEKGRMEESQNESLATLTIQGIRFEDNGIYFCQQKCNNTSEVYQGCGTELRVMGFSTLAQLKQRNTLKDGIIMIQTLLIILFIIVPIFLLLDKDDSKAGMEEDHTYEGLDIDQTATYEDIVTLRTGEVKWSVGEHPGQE

T2: human CD79b fused with an Fc domain at the C-terminus (printed at paragraph 314 as Human CD79a fused with an Fc … (human, UniProt P40259 29-159))
T2 construct: also called CD79b immobilized at a low density; Fc-tagged ECD of human CD79b; not shown: Fc domain at the C-terminus
T2 sequence: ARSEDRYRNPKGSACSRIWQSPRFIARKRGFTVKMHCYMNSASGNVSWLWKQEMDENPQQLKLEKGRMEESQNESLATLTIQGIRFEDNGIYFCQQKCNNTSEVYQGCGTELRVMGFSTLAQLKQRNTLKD

B1: bispecific bisfab anti-CD79b/CD3 (CD79b.A7/UCHT1.v9) (bispecific antibody, V domains shown)
VH 1: QVQLQQPGVELVRPGASVKLSCKASGYTFTTYWMNWVRQRPGQGLDWIGMIDPSDSETHYNQMFKDKATLTVDKSSSTAYIQLNSLTSEDSAVYYCSRSLAFWGQGTLVTVSA
VL 1: not shown
VH 2: EVQLVESGGGLVQPGGSLRLSCAASGYSFTGYTMNWVRQAPGKDLEWVALINPYKGVSTYNQKFKDRFTISVDKSKNTAYLQMNSLRAEDTAVYYCARSGYYGDSDWYFDVWGQGTLVTVSS
VL 2: DIQMTQSPSSLSASVGDRVTITCRASQDIRNYLNWYQQKPGKAPKLLIYYTSRLESGVPSRFSGSGSGTDYTLTISSLQPEDFATYYCQQGNTLPWTFGQGTKLELK
notes: Bisfab format; constant parts and the link between the two Fabs are not described; also called CD79b.A7/UHT1.v9
B2: SN8.new/UCHT1.v9 bispecific K&H antibody (bispecific antibody, V domains shown)
VH 1: EVQLVESGGGLVQPGGSLRLSCAASGYTFSSYWIEWVRQAPGKGLEWVGEILPGGGDTNYNEIFKGRFTISADTSKNTAYLQMNSLRAEDTAVYYCTRRVPIRLDYWGQGTLVTVSS
VL 1: DIQMTQSPSSLSASVGDRVTITCKASQSVDYDGDSFLNWYQQKPGKAPKLLIYAARKLGRGVPSRFSGSGSGTDFTLTISSLQPEDFATYYCQQSNEDPLTFGQGTKVEIK
VH 2: B1 VH 2
VL 2: B1 VL 2
B3: CD79b.A7, dual arm, bivalent anti-CD79b antibody (antibody, V domains shown)
VH: B1 VH 1
VL: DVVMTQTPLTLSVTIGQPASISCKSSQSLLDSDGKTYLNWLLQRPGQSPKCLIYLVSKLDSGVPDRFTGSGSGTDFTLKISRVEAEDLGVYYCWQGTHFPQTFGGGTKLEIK
notes: Mouse hybridoma clone; also called CD79.A7; muCD79b.A7
B4: chCD79b.A7 (antibody, V domains shown)
VH: B1 VH 1
VL: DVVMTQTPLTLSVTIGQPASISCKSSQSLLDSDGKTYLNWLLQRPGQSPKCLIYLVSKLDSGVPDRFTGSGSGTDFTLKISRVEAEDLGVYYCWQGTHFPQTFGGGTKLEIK
notes: Chimeric form of CD79b.A7 by its prefix ch
B5: CD79b.A7.v14 (antibody, V domains shown)
VH: EVQLVQSGAEVKKPGASVKVSCKASGYTFTTYWMNWVRQAPGQGLEWIGMIDPSDSETHYNQMFKDRATLTVDTSTSTAYLELSSLRSEDTAVYYCSRSLAFWGQGTLVTVSS
VL: DIVMTQTPLSLPVTPGQPASISCKSSQSLLDSDGKTYLNWLLQKPGQSPQSLIYLVSKLDSGVPDRFSGSGSGTDFTLKISRVEAEDVGVYYCWQGTHFPQTFGQGTKVEIK
notes: VH1c + VL4; bivalent, dual arm IgG; also called huCD79b.A7.v14; CD79.A7.v14
B6: monovalent CD79.A7.v14 in the K&H TDB format CD79.A7.v14/40G5c (bispecific antibody, V domains shown)
VH 1: B5 VH
VL 1: B5 VL
VH 2: EVQLVQSGAEVKKPGASVKVSCKASGYTFTNYYIHWVRQAPGQGLEWIGWIYPGDGNTKYNEKFKGRATLTADTSTSTAYLELSSLRSEDTAVYYCARDSYSNYYFDYWGQGTLVTVSS
VL 2: DIVMTQSPDSLAVSLGERATINCKSSQSLLNSRTRKNYLAWYQQKPGQPPKLLIYWASTRESGVPDRFSGSGSGTDFTLTISSLQAEDVAVYYCTQSFILRTFGQGTKVEIK
notes: also called CD79b.A7.v14/40G5c K&H
B7: CD79b.A7.v15 (antibody, V domains shown)
VH: B5 VH
VL: B5 VL with I2V
notes: VH1c + VL5; assessed as IgG
B8: CD79b.A7.v21 (antibody, V domains shown)
VH: B5 VH with A68V
VL: B5 VL
notes: VH1f + VL4; assessed as IgG
B9: CD79b.A7.v18 (antibody, V domains shown)
VH: B5 VH with T74K
VL: B5 VL
notes: VH1d + VL4; assessed as IgG
B10: CD79b.A7.v19 (antibody, V domains shown)
VH: B5 VH with T74K
VL: B5 VL with I2V
notes: VH1d + VL5; assessed as IgG
B11: CD79b.A7.v20 (antibody, V domains shown)
VH: B5 VH with L70I
VL: B5 VL
notes: VH1e + VL4; assessed as IgG

How the values were obtained:
human CD79b [1] = molecular target: T1, human CD79b; experiment: cell-based or functional assay
human CD79b [2] = molecular target: T1, human CD79b; experiment: FACS on BJAB cells (FIG. 3B); bispecific bisfab, monovalent for CD79b
Protocol: (§1) BJAB cells were incubated with anti-CD79b antibody (bivalent, dual arm antibody) or anti-CD79b/CD3 TDB antibody as indicated for 30 minutes on ice. At the end of the incubation, cells were washed with ice cold FACS buffer (lx PBS, 2% BSA, 2mM EDTA), followed by incubation with PE-labeled mouse anti-human IgG antibody (BD bioscience #555787). Flow cytometry analysis was done on a BD LSR analyzer. Antibody binding was expressed as Mean Fluorescence Intensity (MFI) of PE fluorophore. A: The bivalent binding affinity of anti-CD79b clone 2F2 comparing to monovalent binding affinity of anti-CD79b clones 2F2, SN8v28, and SN8new (as K&H TDBs); B: bivalent binding affinity of anti-CD79b clones CD79b.F6 and CD79b.A7 comparing to monovalent binding of anti-CD79b clones CD79b.F6, CD79b.A7, and SN8v28 (as bisfab or K&H TDBs); C: bivalent binding affinity of anti-CD79b clone CD79b.A7.v14 comparing to monovalent binding of anti-CD79b clone CD79b.A7.v14 (as K&H TDBs).
(§2) The monovalent and bivalent anti-CD79b antibody binding affinity was also evaluated in order to better understand the contribution, if any, to B cell killing activity. Binding affinity of dual arm, bivalent anti-CD79b antibodies and bispecific anti-CD79b/ CD3 antibodies using BJAB cells were also analyzed. […]

human CD79b [3] = molecular target: T1, human CD79b; experiment: FACS on BJAB cells, PE-labeled mouse anti-human IgG detection, MFI [panel A]
Protocol: as §1, §2

human CD79b [4] = molecular target: T1, human CD79b; experiment: FACS on BJAB cells (FIG. 3B); dual arm, bivalent antibody
Protocol: as §1, §2

human CD79b [5] = molecular target: T1, human CD79b; experiment: FACS on BJAB-luciferase cells, bivalent binding, PE anti-human IgG
Protocol: At the end of the incubation, cells were washed with ice cold FACS buffer (1× PBS, 2% BSA, 2 mM EDTA), followed by incubation with PE-labeled mouse anti-human IgG antibody (BD bioscience #555787). Flow cytometry analysis was done on a BD LSR analyzer. Bivalent binding was expressed as Mean Fluorescence Intensity (MFI) of PE fluorophore.

[6] = molecular target: B3; experiment: FACS on BJAB cells, peptide competition of CD79b.A7 binding (data not shown)
[7] = molecular target: T2, human CD79b fused with an Fc domain at …; experiment: Biacore T100 SPR, bivalent IgG over CD79b-Fc immobilized at low density; apparent affinity
Protocol: The binding affinity of the antibodies in this section was determined by BIAcore™ T100. Briefly, BIAcore™ research grade CM5 chips were activated with 1-ethyl-3-(3-dimethylaminopropyl) carbodiimide (EDC) and N-hydroxysuccinimide (NHS) reagents according to the supplier's instructions. Human […] fused with an Fc domain at the C-terminus was coupled to the chips. To achieve more monovalent binding events, low density of ˜12 response units (RU) was immobilized in each flow cell. For measuring the apparent affinity of the antibodies, ˜370 RU of the antigen was immobilized. Unreacted coupling groups were blocked with 1M ethanolamine. For kinetics measurements, three-fold serial dilutions of antibody was injected in PBS-T buffer (0.05% surfactant P20 in PBS) at 25° C. with a flow rate of 30 μl/min. 10 mM glycine, pH 1.7 was used as regeneration buffer at 30 ul/min flow rate for 1 minute. Association rates (kₒₙ) and dissociation rates (koff) were calculated using a 1:1 Langmuir binding model (BIAcore™ T100 Evaluation Software version 2.0). The equilibrium dissociation constant (Kd) was calculated as the ratio koff/kₒₙ.
Thus additional humanized variants were made to evaluate the contribution of mouse framework vernier positions towards binding. Six additional light chains (VL1: CDRs graft+(Y36L), VL2: CDRs graft+(Y36L+L46C), VL3: CDRs graft+(I2V+Y36L+L46C), VL4: CDRs graft+(Y36L+L46S), VL5: CDRs graft+(I2V+Y36L+L46S), VL6: CDRs graft+(L46S)) and seven additional heavy chains (VH1a: CDRs graft+(A93S), VH1b: CDRs graft+(R71V+A93S), VH1c: CDRs graft+(V67A+I69L+R71V+A93S), VH1d:CDRs graft+(V67A+I69L+R71V+T73K+A93S), VH1e: CDRs graft+(V67A+R71V+A93S), VH1f: CDRs graft+(I69L+R71V+A93S), and VH1g: CDRs graft+(V67A+I69L)) were constructed and combined to generate the variants in Table 2. Based on the affinities of these variants, Y36L and L46C in the light chain appear to be key mouse vernier residues. […] In the heavy chain, V67A, I69L, R71V and A93S also contributed to CD79b binding; however R71V appeared to be the key mouse vernier residues based on this mutational analysis.

human CD79b [8] = molecular target: T1, human CD79b; experiment: FACS on BJAB cells (FIG. 3C)
Protocol: as §1
Binding affinity of the humanized CD79.A7.v14 of monovalent and bivalent was tested as described above.

[9] = molecular target: B3; experiment: FACS on BJAB cells, peptide competition (data not shown)

B1
endogenous B cell killing EC50 (human CD79b [1]): 0.012 µg/mL | EC50 (human CD79b [2]): 1.4 µg/mL

B2
EC50 (read off the curve) (human CD79b [3]): ~1 µg/mL

B3
EC50 (human CD79b [4]): 0.31 µg/mL

B4
EC50 (human CD79b [5]): 0.124 µg/mL

AKSEDLYPNPKGSACSRIWQS
binding result [6]: no binding

B5
EC50 (human CD79b [5]): 0.068 µg/mL | Kd [7]: 5 nM | EC50 (human CD79b [8]): 0.0468 µg/mL

B6
EC50 (human CD79b [8]): 0.22 µg/mL

B7
Kd [7]: 5 nM

B8
Kd [7]: 8 nM

B9
Kd [7]: 4 nM

B10
Kd [7]: 4 nM

B11
Kd [7]: 8 nM

ARSEDRYRNPKGSACSRIWQS
binding result [9]: binds
